Laboratory results: paper PMC3485097, “Branching of the p-nitrophenol (PNP) degradation pathway in burkholderia sp. Strain SJ98: Evidences from genetic characterization of PNP gene cluster” (AMB Express, 2012)

Legend:
[1] = target: PnpE2, small subunit of hydroquinone dioxygenase (HqD) of Burkholderia sp. strain SJ98 (Burkholderia sp. strain SJ98); assay: SEC; purified PnpE1 and PnpE2 mixed in molar ratios from 3:1 to 1:3 in 50 mM phosphate buffer pH 7.0, incubated at 30°C for 1 h, then Sephacryl-200 gel filtration; molecular weight from the elution volume against standard proteins
[2] = system: T1, reconstituted HqD (PnpE1_2-PnpE2_2 heterotetrameric complex); assay: spectrophotometric, 4-hydroxymuconic semialdehyde formation at […] nm; format: biochemical, Burkholderia sp. SJ98; settings: pH 7.0, 25°C; Fe(II) required (100 μM FeSO4 in the standard assay)
T1 construct: gene pnpE1; N-terminal 6xHis on both subunits (pDEST17), E. coli BL21-AI; mixed, gel-filtered, ~120 kDa heterotetramer; with Hydroquinone dioxygenase small subunit

stoichiometry N (molecules of each subunit (2:2)) [1] | Compound | Km [2]
2 | PnpE1, large subunit of hydroquinone dioxygenase (HqD) of Burkholderia sp. strain SJ98 (natural protein) | 
 | Oc1ccc(O)cc1 [HQ, hydroquinone] | 65.3 ± 10.5 µM
